T1: ChCpc1;ChAtf1 (Cochliobolus heterostrophus C4 (Tox1+, …, UniProt M2T2C6;M2TIN4 1-465;1-567, |))
T1 sequence 1: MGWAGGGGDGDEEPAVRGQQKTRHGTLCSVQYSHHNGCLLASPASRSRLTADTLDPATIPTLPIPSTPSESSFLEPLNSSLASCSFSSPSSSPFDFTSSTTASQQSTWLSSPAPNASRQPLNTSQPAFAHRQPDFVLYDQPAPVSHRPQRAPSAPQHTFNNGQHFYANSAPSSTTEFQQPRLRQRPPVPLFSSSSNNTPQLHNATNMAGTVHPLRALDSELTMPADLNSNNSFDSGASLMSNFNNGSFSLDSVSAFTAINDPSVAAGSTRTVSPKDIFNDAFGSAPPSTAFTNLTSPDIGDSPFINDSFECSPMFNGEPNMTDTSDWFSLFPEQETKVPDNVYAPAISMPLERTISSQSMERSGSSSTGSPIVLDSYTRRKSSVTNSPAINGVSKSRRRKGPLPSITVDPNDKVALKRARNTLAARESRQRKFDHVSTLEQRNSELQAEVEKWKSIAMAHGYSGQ
T1 sequence 2: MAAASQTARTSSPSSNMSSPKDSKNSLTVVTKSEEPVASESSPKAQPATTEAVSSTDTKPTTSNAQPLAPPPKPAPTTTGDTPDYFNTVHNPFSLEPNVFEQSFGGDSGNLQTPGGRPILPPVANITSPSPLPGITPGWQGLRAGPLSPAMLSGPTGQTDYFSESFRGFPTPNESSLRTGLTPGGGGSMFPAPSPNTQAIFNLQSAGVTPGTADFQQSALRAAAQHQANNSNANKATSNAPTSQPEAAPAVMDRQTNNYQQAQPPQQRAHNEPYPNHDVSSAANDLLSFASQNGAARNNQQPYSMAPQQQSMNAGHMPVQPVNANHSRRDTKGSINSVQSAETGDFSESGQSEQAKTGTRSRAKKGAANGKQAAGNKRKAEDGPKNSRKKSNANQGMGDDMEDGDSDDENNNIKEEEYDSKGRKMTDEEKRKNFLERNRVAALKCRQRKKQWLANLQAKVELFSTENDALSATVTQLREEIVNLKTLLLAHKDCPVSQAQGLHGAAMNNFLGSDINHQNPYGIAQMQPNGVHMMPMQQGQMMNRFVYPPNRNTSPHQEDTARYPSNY

B1: ChARG4 promoter probe (dsDNA)
DNA 1: CATTGGCGTTTGGGACTGAATTACAATGAGTAATGAAATAACTCACACCACAAAGCAGTA
DNA 2: TACTGCTTTGTGGTGTGAGTTATTTCATTACTCATTGTAATTCAGTCCCAAACGCCAATG
B2: ChATG8 promoter probe (dsDNA)
DNA 1: GGAGAGCGTGAAGGAGAGAGACGGGATGAGTCAAAGTACCCAGGTAGCCAGGTCATGGGA
DNA 2: TCCCATGACCTGGCTACCTGGGTACTTTGACTCATCCCGTCTCTCTCCTTCACGCTCTCC

Biological target: T1, ChCpc1;ChAtf1
Test: EMSA; enhanced versus ChCpc1 alone; Light Shift Chemiluminescent EMSA Kit (Beyotime), 20 min at 25°C; 6.5% polyacrylamide gel, 0.5x TBE; binding buffer, salt and pH not stated
Settings: protein: recombinant;recombinant; tags: His (pET-32a);His (pET32a); copies: 1;1; label: biotin (on forward strand); blunt

Binder	binding result
B1	binds
B2	binds
